Patent US20210340231A1 (FAPON BIOTECH, published 2021)
Changes are numbered by the printed parent chain.

B1: Mutation 1 (antibody, V domains shown)
VH: EVQLQQSGAELVKPGASVKLSCTASGFNLKDYFMHWMKQRTEQGLDWIGRIDPEDAETRYAPEFQGKATITADTSSNTAYLQLSTLTSEDTAVYYCARYYSSYIPFVYWGQGTLVTASA
VL: DVVMTQTPLSLSVSLGDQASISCRSSQSIIYSNRHTYLHWYLQKPGQSPKLLIFQISNRFSGVPDRFSGSGSGTDFTLKINRVEAEDLGVYFCSQSTHLPFTFGSGTKLEIKR
notes: No residue numbers are printed, so each chain is built as FR1-CDR1-FR2-CDR2-FR3-CDR3-FR4-constant
B2: Mutation 1-53 (antibody, V domains shown)
VH: B1 VH with L29I, F33Y, R59K, I104L
VL: B1 VL with I56L, L99I, F101Y
notes: built as for Mutation 1
B3: Mutation 1-18 (antibody, V domains shown)
VH: B1 VH with L29I, R59K
VL: B1 VL with I30L
notes: built as for Mutation 1
B4: Mutation 1-23 (antibody, V domains shown)
VH: B1 VH with L29I, F33Y, A56G, R59K
VL: B1 VL with I30L, L99I, F101Y
notes: built as for Mutation 1
B5: Mutation 1-24 (antibody, V domains shown)
VH: B1 VH with I104V
VL: B1 VL with I29L, I30L, I56V, L99I
notes: built as for Mutation 1
B6: Mutation 1-31 (antibody, V domains shown)
VH: B1 VH with L29I, F33Y, R59K, I104V
VL: B1 VL with I30L, I56V, L99I, F101Y
notes: built as for Mutation 1
B7: Mutation 1-34 (antibody, V domains shown)
VH: B1 VH with L29I, A56G, R59K
VL: B1 VL with I29L, I30L, L99I, F101Y
notes: built as for Mutation 1
B8: Mutation 1-37 (antibody, V domains shown)
VH: B1 VH with L29I, A56G, R59K, I104V
VL: B1 VL with I30L, I56V, F101Y
notes: built as for Mutation 1
B9: Mutation 1-38 (antibody, V domains shown)
VH: B1 VH with L29I, F33Y, R59K
VL: B1 VL with I29L, L99I
notes: built as for Mutation 1
B10: Mutation 1-44 (antibody, V domains shown)
VH: B1 VH with L29I, R59K, I104L
VL: B1 VL with I30L, I56L
notes: built as for Mutation 1
B11: Mutation 1-50 (antibody, V domains shown)
VH: B1 VH with R59K
VL: B1 VL with I30L, L99I
notes: built as for Mutation 1
B12: Mutation 1-52 (antibody, V domains shown)
VH: B1 VH with L29I, I104V
VL: B1 VL with I29L, I30L, I56V
notes: built as for Mutation 1
B13: Mutation 1-4 (antibody, V domains shown)
VH: B1 VH with R59K, I104V
VL: B1 VL with I29L, I30L, I56V
notes: built as for Mutation 1
B14: Mutation 1-6 (antibody, V domains shown)
VH: B1 VH with L29I, A56G, R59K, I104V
VL: B1 VL with I30L, I56V, L99I, F101Y
notes: built as for Mutation 1
B15: Mutation 1-11 (antibody, V domains shown)
VH: B1 VH with L29I, F33Y, R59K, I104V
VL: B1 VL with I30L, I56V, L99I
notes: built as for Mutation 1
B16: Mutation 1-14 (antibody, V domains shown)
VH: B1 VH with L29I, R59K
VL: B1 VL with I29L, I30L, L99I
notes: built as for Mutation 1
B17: WT 1-50 (antibody, V domains shown)
VH: B1 VH with D31E, F33Y, D52E, A56G, S101T, I104L
VL: B1 VL with I29L, R34K, I56L, N58Q, Q95N, F101Y
notes: Built as for Mutation 1
B18: WT 1-3 (antibody, V domains shown)
VH: B1 VH with L29I, D31E, F33Y, D52E, A56G, R59K, S101T, I104L
VL: B1 VL with I29L, I30L, R34K, I56L, N58Q, Q95N, L99I, F101Y
notes: built as for Mutation 1
B19: WT 1-14 (antibody, V domains shown)
VH: B1 VH with L29I, D31E, D52E, R59K, S101T
VL: B1 VL with I29L, I30L, R34K, N58Q, Q95N, L99I
notes: built as for Mutation 1
B20: WT 1-29 (antibody, V domains shown)
VH: B1 VH with D31E, F33Y, D52E, A56G, R59K, S101T, I104V
VL: B1 VL with I29L, I30L, R34K, I56V, N58Q, Q95N, F101Y
notes: built as for Mutation 1
B21: Mutation 2 (antibody, V domains shown)
VH: B1 VH with D31E, S101T
VL: B1 VL
notes: built as for Mutation 1
B22: Mutation 3 (antibody, V domains shown)
VH: B1 VH with D31E, S101T
VL: B1 VL with N58Q
notes: built as for Mutation 1
B23: Mutation 4 (antibody, V domains shown)
VH: B1 VH with D52E
VL: B1 VL with R34K, Q95N
notes: built as for Mutation 1
B24: Mutation 5 (antibody, V domains shown)
VH: B1 VH with D52E
VL: B1 VL with R34K, N58Q, Q95N
notes: built as for Mutation 1

These binders were tested against T1, CTNI quality control recombinant protein (PK2-CTNI-1, 170120, produced by the applicant) (human, UniProt P19429 2-210, limits assumed) (assay: AMC sensor kinetics, antibody captured, cTnI analyte).
T1 construct: also called cardiac troponin I
T1 sequence (P19429 2-210 limits assumed): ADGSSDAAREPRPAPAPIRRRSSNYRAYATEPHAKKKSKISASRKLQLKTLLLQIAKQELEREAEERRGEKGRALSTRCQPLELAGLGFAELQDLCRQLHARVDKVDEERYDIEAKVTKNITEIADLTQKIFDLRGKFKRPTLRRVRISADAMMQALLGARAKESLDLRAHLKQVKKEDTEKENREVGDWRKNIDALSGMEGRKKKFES
Description: Using the AMC sensor, the purified antibody was diluted with PBST to 10 μg/ml, and the CTNI quality control recombinant protein (PK2-CTNI-1, 170120, produced by the applicant) was serially diluted with PBST to 400 nmol/ml, 200 nmol/ml, 100 nmol/ml, 50 nmol/ml, 25 nmol/ml, 12.5 nmol/ml, 6.25 nmol/ml, and 0 nmol/ml.
For B1, the Kd was 751 pM, the koff was 0.000155 s⁻¹ and the kon was 206000 M⁻¹ s⁻¹.
Work on B2 yielded a Kd of 721 pM, a koff of 0.000243 s⁻¹ and a kon of 337000 M⁻¹ s⁻¹.
With B3 the Kd was 680 pM, the koff was 0.000282 s⁻¹ and the kon was 415000 M⁻¹ s⁻¹.
With B4 the Kd was 968 pM, the koff was 0.000673 s⁻¹ and the kon was 695000 M⁻¹ s⁻¹.
Work on B5 yielded a Kd of 408 pM, a koff of 0.000259 s⁻¹ and a kon of 635000 M⁻¹ s⁻¹.
B6 was tested, and the Kd was 795 pM, the koff was 0.000301 s⁻¹ and the kon was 378000 M⁻¹ s⁻¹.
With B7 the Kd was 1410 pM, the koff was 0.000598 s⁻¹ and the kon was 424000 M⁻¹ s⁻¹.
Binder B8 has a Kd of 667 pM, a koff of 0.000267 s⁻¹ and a kon of 400000 M⁻¹ s⁻¹.
B9 showed a Kd of 240 pM, a koff of 0.000103 s⁻¹ and a kon of 431000 M⁻¹ s⁻¹.
In the case of B10, the Kd is reported as 865 pM, the koff is reported as 0.000464 s⁻¹ and the kon is reported as 537000 M⁻¹ s⁻¹.
B11 showed a Kd of 386 pM, a koff of 5.48e-05 s⁻¹ and a kon of 142000 M⁻¹ s⁻¹.
B12 was tested, and the Kd was 941 pM, the koff was 0.000229 s⁻¹ and the kon was 243000 M⁻¹ s⁻¹.
B13 showed a Kd of 963 pM, a koff of 0.00023 s⁻¹ and a kon of 239000 M⁻¹ s⁻¹.
In the case of B14, the Kd is reported as 734 pM, the koff is reported as 0.000266 s⁻¹ and the kon is reported as 362000 M⁻¹ s⁻¹.
B15 showed a Kd of 606 pM, a koff of 0.000443 s⁻¹ and a kon of 731000 M⁻¹ s⁻¹.
For B16, the Kd was 415 pM, the koff was 0.000279 s⁻¹ and the kon was 673000 M⁻¹ s⁻¹.

Target: T1, CTNI quality control recombinant …
Assay: as above
Remark: another data set of the same source
Work on B17 yielded a Kd of 702 pM, a koff of 0.000489 s⁻¹ and a kon of 696000 M⁻¹ s⁻¹.
With B18 the Kd was 549 pM, the koff was 0.000348 s⁻¹ and the kon was 633000 M⁻¹ s⁻¹.
B19 gave a Kd of 749 pM, a koff of 0.000398 s⁻¹ and a kon of 532000 M⁻¹ s⁻¹.
B20 was tested, and the Kd was 1230 pM, the koff was 0.00011 s⁻¹ and the kon was 89600 M⁻¹ s⁻¹.

Each binder was assayed against T1, CTNI quality control recombinant … (assay: indirect ELISA, cTnI coated 1 ug/ml, antibody 8 ug/ml).
Description: (§1) The cTnI quality control after diluted to 1 μg/ml with the coating solution was used for microplate coating at 100 uL per well and left at 4° C. overnight. The next day, the microplate was washed twice with the wash solution and tapped for drying. The blocking solution (20% BSA+80% PBS) was added at 120 μL per well and left for 1 h at 37° C., and the microplate was tapped for drying. The diluted cTn monoclonal antibody was added at 100 μL per well and left for 30 min at 37° C.; then the microplate was washed 5 times with the wash solution and tapped for drying. The goat anti-mouse IgG-HRP was added at 100 μL per well and left for 30 min at 37° C.; then the microplate was washed 5 times with the wash solution and tapped for drying. Colour-developing solution A was added at 50 μL per well, followed by colour-developing solution B at 50 μL per well; the mixed solution was left for 10 min; and stopping solution was added at 50 μL per well. The OD value was read out at 450 nm (reference at 630 nm) on the microplate reader.
B1 was tested, and the “OD 450 nm (reference 630 nm)” value was 2.07 OD.
For B21, the “OD 450 nm (reference 630 nm)” value was 1.8 OD.
B22 was tested, and the “OD 450 nm (reference 630 nm)” value was 1.86 OD.
With B23 the “OD 450 nm (reference 630 nm)” value was 1.75 OD.
With B24 the “OD 450 nm (reference 630 nm)” value was 1.69 OD.

Each binder was assayed against T1, CTNI quality control recombinant … (assay: indirect ELISA, cTnI coated 1 ug/ml, antibody 40 ug/ml).
Description: as §1
With B1 the “OD 450 nm (reference 630 nm)” value was 2.35 OD.
With B21 the “OD 450 nm (reference 630 nm)” value was 2.3 OD.
With B22 the “OD 450 nm (reference 630 nm)” value was 2.25 OD.
B23 was tested, and the “OD 450 nm (reference 630 nm)” value was 1.98 OD.
In the case of B24, the “OD 450 nm (reference 630 nm)” value is reported as 1.94 OD.

What follows are binders tested against T1, CTNI quality control recombinant … (assay: indirect ELISA, cTnI coated 1 ug/ml, antibody 1.6 ug/ml).
Description: as §1
In the case of B1, the “OD 450 nm (reference 630 nm)” value is reported as 0.973 OD.
In the case of B21, the “OD 450 nm (reference 630 nm)” value is reported as 0.724 OD.
For B22, the “OD 450 nm (reference 630 nm)” value was 0.831 OD.
For B23, the “OD 450 nm (reference 630 nm)” value was 0.689 OD.
With B24 the “OD 450 nm (reference 630 nm)” value was 0.721 OD.

Each binder was assayed against T1, CTNI quality control recombinant … (assay: indirect ELISA, cTnI coated 1 ug/ml, antibody 200 ug/ml).
Description: as §1
In the case of B1, the “OD 450 nm (reference 630 nm)” value is reported as 2.4 OD.
In the case of B21, the “OD 450 nm (reference 630 nm)” value is reported as 2.42 OD.
With B22 the “OD 450 nm (reference 630 nm)” value was 2.37 OD.
For B23, the “OD 450 nm (reference 630 nm)” value was 2.15 OD.
With B24 the “OD 450 nm (reference 630 nm)” value was 2.2 OD.

These binders were tested against T1, CTNI quality control recombinant … (assay: indirect ELISA, cTnI coated 1 ug/ml, antibody 0.32 ug/ml).
Description: as §1
In the case of B1, the “OD 450 nm (reference 630 nm)” value is reported as 0.341 OD.
In the case of B21, the “OD 450 nm (reference 630 nm)” value is reported as 0.233 OD.
In the case of B22, the “OD 450 nm (reference 630 nm)” value is reported as 0.301 OD.
For B23, the “OD 450 nm (reference 630 nm)” value was 0.314 OD.
In the case of B24, the “OD 450 nm (reference 630 nm)” value is reported as 0.189 OD.

Each binder was assayed against T1, CTNI quality control recombinant … (assay: indirect ELISA, cTnI coated 1 ug/ml, antibody 1000 ug/ml).
Description: as §1
In the case of B1, the “OD 450 nm (reference 630 nm)” value is reported as 2.4 OD.
B21 was tested, and the “OD 450 nm (reference 630 nm)” value was 2.38 OD.
B22 was tested, and the “OD 450 nm (reference 630 nm)” value was 2.35 OD.
In the case of B23, the “OD 450 nm (reference 630 nm)” value is reported as 2.22 OD.
For B24, the “OD 450 nm (reference 630 nm)” value was 2.2 OD.

What follows are binders tested against T1, CTNI quality control recombinant … (assay: indirect ELISA, cTnI coated 1 ug/ml, antibody 0 ug/ml (blank)).
Description: as §1
For B1, the “OD 450 nm (reference 630 nm)” value was 0.032 OD.
With B21 the “OD 450 nm (reference 630 nm)” value was 0.04 OD.
B22 was tested, and the “OD 450 nm (reference 630 nm)” value was 0.028 OD.
With B23 the “OD 450 nm (reference 630 nm)” value was 0.03 OD.
With B24 the “OD 450 nm (reference 630 nm)” value was 0.042 OD.
